Measured values reported in publication PMC8752837 (2022).

T1: GST-BAK (human)
T1 chain: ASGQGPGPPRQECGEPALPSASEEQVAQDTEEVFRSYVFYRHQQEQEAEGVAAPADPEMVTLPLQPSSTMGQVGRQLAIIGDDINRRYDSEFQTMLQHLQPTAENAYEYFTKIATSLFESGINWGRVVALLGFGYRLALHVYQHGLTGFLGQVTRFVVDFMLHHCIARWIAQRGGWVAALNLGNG

T2: tevBAK (residues 22–186) (human, UniProt Q16611 22-186)
T2 chain: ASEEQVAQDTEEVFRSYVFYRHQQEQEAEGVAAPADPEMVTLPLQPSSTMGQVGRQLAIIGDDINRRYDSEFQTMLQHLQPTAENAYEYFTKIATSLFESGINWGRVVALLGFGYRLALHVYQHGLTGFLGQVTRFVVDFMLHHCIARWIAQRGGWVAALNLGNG


Target: T1, GST-BAK
Test: FP

| Binder | IC50 |
| --- | --- |
| Ac-EDIIRNIARHLAQVGDSFDRSI-NH2 [F(4) BID BH3 peptide] | 11.9 µM |
| Ac-EDIIRNIARHLAQVGDSWDRSI-NH2 [W(4) BID BH3 peptide] | 11.5 µM |
| Ac-EDIIRNIARHLAQFGDSMDRSI-NH2 [F(3) BID BH3 peptide] | 11.3 µM |
| Ac-EDIIRNIARHLAQVGDSMDRSI-NH2 [WT BID BH3 peptide] | 12.2 µM |

Second part, the binder after the results:

| IC50 | Binder |
| --- | --- |
| 4.6 µM | Ac-EDIIRNIARHLAQMGDSMDRSI-NH2 [M(3) BID BH3 peptide] |
| 8.8 µM | Ac-EDIIRNIARHLAQVGDSMDRSW-NH2 [W(5) BID BH3 peptide] |
| 10.8 µM | Ac-EDIWRNIARHLAQVGDSMDRSI-NH2 [W(0) BID BH3 peptide] |
| 6.6 µM | Ac-EDIIRNIARHLAQWGDSMDRSI-NH2 [W(3) BID BH3 peptide] |
| 6.2 µM | Ac-EDIIRNIARHLAQYGDSMDRSI-NH2 [Y(3) BID BH3 peptide] |
| 6.9 µM | Ac-EDIIRNIARHLAQVGDSYDRSI-NH2 [Y(4) BID BH3 peptide] |

Target: T2, tevBAK (residues 22–186)
Test: ITC

| Kd | Binder |
| --- | --- |
| 22.7 µM | Ac-EDIIRNIARHLAQVGDSMDRSI-NH2 [WT BID BH3 peptide] |
| 0.25 µM | Ac-EDIIRNIARHLAQWGDSMDRSW-NH2 [W(3)W(5) BID BH3 peptide] |
